# Test results from doi:10.1101/2022.09.05.506711, “New structures of Class II Fructose-1,6-Bisphosphatase from Francisella tularensis suggest a novel catalytic mechanism for the entire Class” (bioRxiv, 2022).
# B1: Mycobacterium tuberculosis class II fructose-1,6-bisphosphatase (enzyme)
# chain: MELVRVTEAGAMAAGRWVGRGDKEGGDGAAVDAMRELVNSVSMRGVVVIGEGEKDHAPMLYNGEEVGNGDGPECDFAVDPIDGTTLMSKGMTNAISVLAVADRGTMFDPSAVFYMNKIAVGPDAAHVLDITAPISENIRAVAKVKDLSVRDMTVCILDRPRHAQLIHDVRATGARIRLITDGDVAGAISACRPHSGTDLLAGIGGTPEGIIAAAAIRCMGGAIQAQLAPRDDAERRKALEAGYDLNQVLTTEDLVSGENVFFCATGVTDGDLLKGVRYYPGGCTTHSIVMRSKSGTVRMIEAYHRLSKLNEYSAIDFTGDSSAVYPLP
# notes: also called MtFBPaseII; MtFBPase
# Biological target: the molecule itself
# Experiment: crystal structure
protein,measurement,value
B1,stoichiometry N,4
